Measured values: the RNAGym collection of RNA variant scans (doi:10.1021/acssynbio.7b00057)

B1: Pistol ribozyme (parent)
chain: GGGUCGUUGUUCCAUAAUCGCGUGGAUAUGGCACGCAAGUUUCUACCGGGCACCGUAAAUGUCCGACUGGAGCCGUUCGGGCGGCUAUAAACAGACCUCAGGCCCGAAGCGUGGCGGCACCUGCCGCCGGUGGUAAAAAAGAUCGGAAGAGCACACGUCU

Variants of: B1
Test: aptazyme ON/OFF ratio, guanine; higher = stronger switching; co-transcriptional cleavage with and without guanine

Variant | aptazyme ON/OFF ratio
GGGUCGGCGUUGAAUAAUCGCGUGGAUAUGGCACGCAAGUUUCUACCGGGCACCGUAAAUGUCCGACUGGAGCCGUUCGGGCGGCUAUAAACAGACCUCAGGCCCGAAGCGUGGCGGCACCUGCCGCCGGUGGUAAAAAAGAUCGGAAGAGCACACGUCU | 1.08
GGGUCGGCGUUGUAUAAUCGCGUGGAUAUGGCACGCAAGUUUCUACCGGGCACCGUAAAUGUCCGACUGGAGCCGUUCGGGCGGCUAUAAACAGACCUCAGGCCCGAAGCGUGGCGGCACCUGCCGCCGGUGGUAAAAAAGAUCGGAAGAGCACACGUCU | 1.19
GGGUCGGCGUUGGAUAAUCGCGUGGAUAUGGCACGCAAGUUUCUACCGGGCACCGUAAAUGUCCGACUGGAGCCGUUCGGGCGGCUAUAAACAGACCUCAGGCCCGAAGCGUGGCGGCACCUGCCGCCGGUGGUAAAAAAGAUCGGAAGAGCACACGUCU | 1.08
GGGUCGGCGUUAGAUAAUCGCGUGGAUAUGGCACGCAAGUUUCUACCGGGCACCGUAAAUGUCCGACUGGAGCCGUUCGGGCGGCUAUAAACAGACCUCAGGCCCGAAGCGUGGCGGCACCUGCCGCCGGUGGUAAAAAAGAUCGGAAGAGCACACGUCU | 1.1
GGGUCGGCGUUAUAUAAUCGCGUGGAUAUGGCACGCAAGUUUCUACCGGGCACCGUAAAUGUCCGACUGGAGCCGUUCGGGCGGCUAUAAACAGACCUCAGGCCCGAAGCGUGGCGGCACCUGCCGCCGGUGGUAAAAAAGAUCGGAAGAGCACACGUCU | 1.08
GGGUCGGCGUUUCAUAAUCGCGUGGAUAUGGCACGCAAGUUUCUACCGGGCACCGUAAAUGUCCGACUGGAGCCGUUCGGGCGGCUAUAAACAGACCUCAGGCCCGAAGCGUGGCGGCACCUGCCGCCGGUGGUAAAAAAGAUCGGAAGAGCACACGUCU | 1.2
GGGUCGGCGUUGCAUAAUCGCGUGGAUAUGGCACGCAAGUUUCUACCGGGCACCGUAAAUGUCCGACUGGAGCCGUUCGGGCGGCUAUAAACAGACCUCAGGCCCGAAGCGUGGCGGCACCUGCCGCCGGUGGUAAAAAAGAUCGGAAGAGCACACGUCU | 1.12
GGGUCGGCAUUCUAUAAUCGCGUGGAUAUGGCACGCAAGUUUCUACCGGGCACCGUAAAUGUCCGACUGGAGCCGUUCGGGCGGCUAUAAACAGACCUCAGGCCCGAAGCGUGGCGGCACCUGCCGCCGGUGGUAAAAAAGAUCGGAAGAGCACACGUCU | 1.22
GGGUCGGCAUUCGAUAAUCGCGUGGAUAUGGCACGCAAGUUUCUACCGGGCACCGUAAAUGUCCGACUGGAGCCGUUCGGGCGGCUAUAAACAGACCUCAGGCCCGAAGCGUGGCGGCACCUGCCGCCGGUGGUAAAAAAGAUCGGAAGAGCACACGUCU | 1.03
GGGUCGGCAUUCAAUAAUCGCGUGGAUAUGGCACGCAAGUUUCUACCGGGCACCGUAAAUGUCCGACUGGAGCCGUUCGGGCGGCUAUAAACAGACCUCAGGCCCGAAGCGUGGCGGCACCUGCCGCCGGUGGUAAAAAAGAUCGGAAGAGCACACGUCU | 1.09
GGGUCGGCGUUUAAUAAUCGCGUGGAUAUGGCACGCAAGUUUCUACCGGGCACCGUAAAUGUCCGACUGGAGCCGUUCGGGCGGCUAUAAACAGACCUCAGGCCCGAAGCGUGGCGGCACCUGCCGCCGGUGGUAAAAAAGAUCGGAAGAGCACACGUCU | 1.05
GGGUCGGCGUUUUAUAAUCGCGUGGAUAUGGCACGCAAGUUUCUACCGGGCACCGUAAAUGUCCGACUGGAGCCGUUCGGGCGGCUAUAAACAGACCUCAGGCCCGAAGCGUGGCGGCACCUGCCGCCGGUGGUAAAAAAGAUCGGAAGAGCACACGUCU | 1.07
GGGUCGGCGUUUGAUAAUCGCGUGGAUAUGGCACGCAAGUUUCUACCGGGCACCGUAAAUGUCCGACUGGAGCCGUUCGGGCGGCUAUAAACAGACCUCAGGCCCGAAGCGUGGCGGCACCUGCCGCCGGUGGUAAAAAAGAUCGGAAGAGCACACGUCU | 1.19
GGGUCGGCAUUGUAUAAUCGCGUGGAUAUGGCACGCAAGUUUCUACCGGGCACCGUAAAUGUCCGACUGGAGCCGUUCGGGCGGCUAUAAACAGACCUCAGGCCCGAAGCGUGGCGGCACCUGCCGCCGGUGGUAAAAAAGAUCGGAAGAGCACACGUCU | 1.03
GGGUCGGCAUUGGAUAAUCGCGUGGAUAUGGCACGCAAGUUUCUACCGGGCACCGUAAAUGUCCGACUGGAGCCGUUCGGGCGGCUAUAAACAGACCUCAGGCCCGAAGCGUGGCGGCACCUGCCGCCGGUGGUAAAAAAGAUCGGAAGAGCACACGUCU | 1.04
GGGUCGGCAUUGAAUAAUCGCGUGGAUAUGGCACGCAAGUUUCUACCGGGCACCGUAAAUGUCCGACUGGAGCCGUUCGGGCGGCUAUAAACAGACCUCAGGCCCGAAGCGUGGCGGCACCUGCCGCCGGUGGUAAAAAAGAUCGGAAGAGCACACGUCU | 1.05
GGGUCGGCAUUAAAUAAUCGCGUGGAUAUGGCACGCAAGUUUCUACCGGGCACCGUAAAUGUCCGACUGGAGCCGUUCGGGCGGCUAUAAACAGACCUCAGGCCCGAAGCGUGGCGGCACCUGCCGCCGGUGGUAAAAAAGAUCGGAAGAGCACACGUCU | 1.08
GGGUCGGCAUUAGAUAAUCGCGUGGAUAUGGCACGCAAGUUUCUACCGGGCACCGUAAAUGUCCGACUGGAGCCGUUCGGGCGGCUAUAAACAGACCUCAGGCCCGAAGCGUGGCGGCACCUGCCGCCGGUGGUAAAAAAGAUCGGAAGAGCACACGUCU | 1.05

Variant | aptazyme ON/OFF ratio
GGGUCGGCAUUAUAUAAUCGCGUGGAUAUGGCACGCAAGUUUCUACCGGGCACCGUAAAUGUCCGACUGGAGCCGUUCGGGCGGCUAUAAACAGACCUCAGGCCCGAAGCGUGGCGGCACCUGCCGCCGGUGGUAAAAAAGAUCGGAAGAGCACACGUCU | 1.06
GGGUCGGCAAUAUAUAAUCGCGUGGAUAUGGCACGCAAGUUUCUACCGGGCACCGUAAAUGUCCGACUGGAGCCGUUCGGGCGGCUAUAAACAGACCUCAGGCCCGAAGCGUGGCGGCACCUGCCGCCGGUGGUAAAAAAGAUCGGAAGAGCACACGUCU | 1.2
GGGUCGGCAAUAGAUAAUCGCGUGGAUAUGGCACGCAAGUUUCUACCGGGCACCGUAAAUGUCCGACUGGAGCCGUUCGGGCGGCUAUAAACAGACCUCAGGCCCGAAGCGUGGCGGCACCUGCCGCCGGUGGUAAAAAAGAUCGGAAGAGCACACGUCU | 1.13
GGGUCGGCAAUAAAUAAUCGCGUGGAUAUGGCACGCAAGUUUCUACCGGGCACCGUAAAUGUCCGACUGGAGCCGUUCGGGCGGCUAUAAACAGACCUCAGGCCCGAAGCGUGGCGGCACCUGCCGCCGGUGGUAAAAAAGAUCGGAAGAGCACACGUCU | 1.23
GGGUCGGCAAUGCAUAAUCGCGUGGAUAUGGCACGCAAGUUUCUACCGGGCACCGUAAAUGUCCGACUGGAGCCGUUCGGGCGGCUAUAAACAGACCUCAGGCCCGAAGCGUGGCGGCACCUGCCGCCGGUGGUAAAAAAGAUCGGAAGAGCACACGUCU | 1.24
GGGUCGGCAAUACAUAAUCGCGUGGAUAUGGCACGCAAGUUUCUACCGGGCACCGUAAAUGUCCGACUGGAGCCGUUCGGGCGGCUAUAAACAGACCUCAGGCCCGAAGCGUGGCGGCACCUGCCGCCGGUGGUAAAAAAGAUCGGAAGAGCACACGUCU | 1.15
GGGUCGGCAAUGAAUAAUCGCGUGGAUAUGGCACGCAAGUUUCUACCGGGCACCGUAAAUGUCCGACUGGAGCCGUUCGGGCGGCUAUAAACAGACCUCAGGCCCGAAGCGUGGCGGCACCUGCCGCCGGUGGUAAAAAAGAUCGGAAGAGCACACGUCU | 1.07
GGGUCGGCAAUCCAUAAUCGCGUGGAUAUGGCACGCAAGUUUCUACCGGGCACCGUAAAUGUCCGACUGGAGCCGUUCGGGCGGCUAUAAACAGACCUCAGGCCCGAAGCGUGGCGGCACCUGCCGCCGGUGGUAAAAAAGAUCGGAAGAGCACACGUCU | 3.78
GGGUCGGCAUUCCAUAAUCGCGUGGAUAUGGCACGCAAGUUUCUACCGGGCACCGUAAAUGUCCGACUGGAGCCGUUCGGGCGGCUAUAAACAGACCUCAGGCCCGAAGCGUGGCGGCACCUGCCGCCGGUGGUAAAAAAGAUCGGAAGAGCACACGUCU | 4.1
GGGUCGGCAUUUUAUAAUCGCGUGGAUAUGGCACGCAAGUUUCUACCGGGCACCGUAAAUGUCCGACUGGAGCCGUUCGGGCGGCUAUAAACAGACCUCAGGCCCGAAGCGUGGCGGCACCUGCCGCCGGUGGUAAAAAAGAUCGGAAGAGCACACGUCU | 1.03
GGGUCGGCAUUUGAUAAUCGCGUGGAUAUGGCACGCAAGUUUCUACCGGGCACCGUAAAUGUCCGACUGGAGCCGUUCGGGCGGCUAUAAACAGACCUCAGGCCCGAAGCGUGGCGGCACCUGCCGCCGGUGGUAAAAAAGAUCGGAAGAGCACACGUCU | 1.02
GGGUCGGCAUUUAAUAAUCGCGUGGAUAUGGCACGCAAGUUUCUACCGGGCACCGUAAAUGUCCGACUGGAGCCGUUCGGGCGGCUAUAAACAGACCUCAGGCCCGAAGCGUGGCGGCACCUGCCGCCGGUGGUAAAAAAGAUCGGAAGAGCACACGUCU | 1.03
GGGUCGGCGUUCAAUAAUCGCGUGGAUAUGGCACGCAAGUUUCUACCGGGCACCGUAAAUGUCCGACUGGAGCCGUUCGGGCGGCUAUAAACAGACCUCAGGCCCGAAGCGUGGCGGCACCUGCCGCCGGUGGUAAAAAAGAUCGGAAGAGCACACGUCU | 1.21
GGGUCGGCGUUCGAUAAUCGCGUGGAUAUGGCACGCAAGUUUCUACCGGGCACCGUAAAUGUCCGACUGGAGCCGUUCGGGCGGCUAUAAACAGACCUCAGGCCCGAAGCGUGGCGGCACCUGCCGCCGGUGGUAAAAAAGAUCGGAAGAGCACACGUCU | 1.07
GGGUCGGCGUUCUAUAAUCGCGUGGAUAUGGCACGCAAGUUUCUACCGGGCACCGUAAAUGUCCGACUGGAGCCGUUCGGGCGGCUAUAAACAGACCUCAGGCCCGAAGCGUGGCGGCACCUGCCGCCGGUGGUAAAAAAGAUCGGAAGAGCACACGUCU | 1.46
GGGUCGGCAUUUCAUAAUCGCGUGGAUAUGGCACGCAAGUUUCUACCGGGCACCGUAAAUGUCCGACUGGAGCCGUUCGGGCGGCUAUAAACAGACCUCAGGCCCGAAGCGUGGCGGCACCUGCCGCCGGUGGUAAAAAAGAUCGGAAGAGCACACGUCU | 1.07
GGGUCGGCAUUGCAUAAUCGCGUGGAUAUGGCACGCAAGUUUCUACCGGGCACCGUAAAUGUCCGACUGGAGCCGUUCGGGCGGCUAUAAACAGACCUCAGGCCCGAAGCGUGGCGGCACCUGCCGCCGGUGGUAAAAAAGAUCGGAAGAGCACACGUCU | 1.07
GGGUCGGCAUUACAUAAUCGCGUGGAUAUGGCACGCAAGUUUCUACCGGGCACCGUAAAUGUCCGACUGGAGCCGUUCGGGCGGCUAUAAACAGACCUCAGGCCCGAAGCGUGGCGGCACCUGCCGCCGGUGGUAAAAAAGAUCGGAAGAGCACACGUCU | 1.06
